Assay results reported in paper PMC2686270.

Target: 6xHis-SpaK G392A (C-terminal half of SpaK) (Bacillus subtilis)

6xHis-SpaK H247Q (C-terminal half of SpaK) (domain or fragment)
autophosphorylation restored by combining the two SpaK mutants, each inactive alone (intermolecular complementation; 32P-ATP, SDS-PAGE and autoradiography, Fig. 5B lane 6) (% of wild type): 25
